B1: PLD5 (parent)
chain: WIVDKQHVYIGSAGLDWQSLGQMK
B2: BTBD1 (parent)
chain: TSAEIELPDVEPAAFLALLRFLYS

Variants of: B1
Assay: protein stability index of a GFP-peptide fusion (GPS, HEK-293T) (PSI 1-6); higher = more stable
Settings: c terminus: a fixed tail appended
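Further: lentivirally expressed fusions sorted by FACS into six bins by GFP to DsRed ratio, PSI derived from sequencing read proportions per bin multiplied by bin number.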

Protein stability index: each site, then its substitutions
W17: K 1.72 | L 1.64 | M 1.38 | N 2.17 | P 1.64 | Q 2.09 | R 1.9 | S 2.36 | T 1.9 | V 2.24 | Y 1.89
Q18: A 1.95 | C 3.36 | D 2.42 | E 1.6 | F 4.52 | G 2.4 | H 1.96 | I 2.62 | K 1.61 | L 2.15 | M 3.07 | N 2.1 | P 1.85 | R 1.47 | S 2.16 | T 2.07 | V 2.73 | Y 2.65
S19: A 2.23 | C 2.62 | D 1.9 | E 2.06 | F 2.34 | H 1.81 | K 2.22 | L 3.25 | M 1.7 | N 1.45 | P 1.29 | Q 1.9 | R 1.83 | T 1.96 | V 1.69 | W 2.5 | Y 1.91
L20: A 1.65 | C 2.05 | D 1.96 | E 2.3 | F 1.61 | G 2.43 | H 1.76 | I 1.97 | K 2.17 | M 2.19 | N 2 | P 2.1 | Q 1.54 | R 2.13 | S 1.85 | T 2.01 | V 2 | W 1.85 | Y 1.97
G21: A 2.17 | C 1.91 | D 2 | E 1.25 | H 2.52 | K 1.54 | L 2.88 | M 1.89 | N 2.41 | P 1.67 | Q 1.75 | R 1.86 | S 1.52 | T 1.86 | V 2.13 | W 1.68 | Y 1.72
Q22: A 2.11 | C 2.35 | D 1.97 | E 1.59 | F 2.59 | G 1.8 | H 2.74 | I 1.53 | K 2.32 | L 3.9 | N 1.67 | P 2.01 | R 1.37 | S 1.97 | T 2.97 | V 1.79 | W 2.11 | Y 2.35
M23: A 1.55 | C 2.21 | D 2.15 | E 2.11 | F 1.69 | G 1.9 | H 1.32 | I 2.15 | K 1.69 | L 2.12 | N 1.9 | P 1.85 | Q 2.09 | R 1.97 | S 1.74 | T 2.06 | V 1.29 | W 2.19 | Y 1.84
K24: A 2.37 | C 3.61 | D 2.02 | E 2.51 | F 2.05 | H 2.79 | I 1.79 | L 2.68 | M 2.58 | N 2.36 | P 2.17 | R 1.51 | S 3.37 | T 2.23 | V 2.15 | W 2.97

Variants of: B2
Assay: as above
Settings: c terminus: a fixed tail appended

Protein stability index: each site, then its substitutions
T1: A 2.22 | C 2.79 | D 2.4 | E 1.66 | F 1.79 | G 2.56 | H 2.15 | I 1.65 | K 2.68 | L 2.02 | M 2.46 | N 2.17 | P 1.88 | Q 1.97 | R 1.9 | S 1.65 | V 1.88 | W 1.96 | Y 1.97
S2: A 1.72 | C 2.05 | D 1.61 | E 1.65 | F 2 | G 2.15 | H 1.82 | I 2.07 | K 2.39 | L 1.99 | M 1.7 | N 1.49 | P 2.33 | Q 2.24 | R 2.09 | T 1.74 | V 1.87 | W 1.91 | Y 2.28
A3: C 1.98 | D 2.12 | E 1.91 | F 1.58 | G 2.66 | H 1.8 | I 2.26 | K 2.17 | L 1.53 | M 1.52 | N 1.96 | P 2.12 | Q 2.01 | R 2.26 | S 1.67 | T 1.99 | V 2.27 | W 1.41 | Y 1.83
E4: A 1.84 | C 1.8 | D 1.66 | F 2.24 | G 2.07 | H 1.56 | I 2.07 | K 1.17 | L 1.91 | M 1.55 | N 1.44 | P 1.64 | Q 2.14 | R 1.59 | S 1.45 | T 1.73 | V 1.55 | W 1.88 | Y 1.68
I5: A 2.06 | C 1.77 | D 2.44 | E 2.03 | F 1.78 | G 2.55 | H 1.93 | K 2.94 | L 1.75 | M 1.89 | N 2.14 | P 1.68 | Q 2.4 | R 2.55 | S 1.94 | T 2.18 | V 1.75 | W 2 | Y 1.95
E6: A 2.19 | C 2.3 | D 2.07 | F 1.64 | G 1.75 | H 1.78 | I 2.82 | K 2.13 | L 1.73 | M 2.22 | N 1.96 | P 2.31 | Q 2.01 | R 1.84 | S 2.49 | T 2.1 | V 1.67 | W 1.85 | Y 1.74
L7: A 1.88 | C 1.75 | D 2.15 | E 1.63 | F 1.96 | G 1.89 | H 2.22 | I 1.93 | K 2.31 | M 2.08 | N 1.9 | P 2.3 | Q 1.96 | R 2.28 | S 1.79 | T 1.75 | V 1.98 | W 2.02 | Y 2.05
P8: A 1.97 | C 1.49 | D 1.95 | E 2.17 | F 2.23 | G 1.96 | H 1.63 | I 1.62 | K 1.46 | L 1.26 | M 1.9 | N 1.92 | Q 1.76 | R 1.93 | S 2.06 | T 1.74 | V 2.48 | W 1.53 | Y 2.37
D9: A 1.84 | C 1.62 | E 2.19 | F 2.23 | G 1.92 | H 2 | I 1.49 | K 1.98 | L 1.63 | M 2.11 | N 2 | P 2.4 | Q 2.45 | R 2.24 | S 2.12 | T 2.55 | V 1.95 | W 2.12 | Y 1.33
V10: A 1.8 | C 1.67 | D 2.2 | E 2.35 | F 1.82 | G 2.23 | H 1.65 | I 1.8 | K 1.69 | L 1.56 | M 1.95 | N 2.08 | P 2.32 | Q 2.22 | R 2.09 | S 2.78 | T 2.01 | W 1.62 | Y 1.78
E11: A 1.84 | C 1.1 | D 1.69 | F 1.68 | G 2.44 | H 1.91 | I 2.38 | K 2.75 | L 1.88

Reference: the supplement of paper PMC10567573
